Experiment [1] deals with T1, human BCMA (human, UniProt Q02223 1-184).
T1 construct: whole, on cells; the cell line is named under assay; also called TNFRSF17; CD269
T1 sequence (looked up): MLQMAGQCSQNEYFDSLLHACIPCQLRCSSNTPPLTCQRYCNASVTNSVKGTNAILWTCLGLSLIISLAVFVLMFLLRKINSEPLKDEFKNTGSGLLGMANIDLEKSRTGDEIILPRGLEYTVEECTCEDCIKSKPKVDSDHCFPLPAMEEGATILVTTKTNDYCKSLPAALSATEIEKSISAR
Nature of the experiment: flow cytometry, NCI-H929 cells, Flag-tagged VH single domain, anti-tag secondary antibody. For orientation: Flow cytometry measures light scatter and fluorescence of single cells or particles in a stream.
Method: Specifically, HEK293T/hBCMA cells and HEK293T/cyno BCMA cells were digested and resuspended in a DMEM complete medium. In addition, NCI-H929 cell suspension was collected. The density of each of the three cells was adjusted to 1×10⁶ cells/mL. […] The cells were incubated at 4° C. for 1 h away from light. Thereafter, the cells in each well were rinsed twice with 100 μL of pre-cooled PBS, and centrifuged at 500 g at 4° C. for 5 min, and then the supernatant was discarded. […] The cells in each well were rinsed twice with 100 μL of pre-cooled PBS, and centrifuged at 500 g at 4° C. for 5 min, and then the supernatant was discarded. Finally, the cells in each well were resuspended in 200 μL of pre-cooled PBS. Fluorescence signal values were read using a BD FACS CANTOII flow cytometer or an ACEA NovoCyte flow cytometer, and the data were processed and analyzed using FlowJo v10 (FlowJo, LLC) software. The data were processed and analyzed by plotting using GraphPad Prism 8 software, and binding curves of the antibodies to target cells, EC₅₀ values and other parameters were obtained through four-parameter nonlinear fitting.
It is specifically noted that the recombinant variant molecules are VH single-domain antibody molecules with a Flag tag, and a fluorescent secondary antibody against the tag is required in the FACS assay.

Experiment [2] deals with T2, biotinylated human BCMA-Fc, Avitag recombinant protein (ACRO Biosystems, #BC7-H82F0) (human, UniProt Q02223 1-54, biotinylated).
T2 construct: extracellular domain; Bought protein; also called human BCMA protein; recombinant human BCMA-ECD-Fc; not shown: Fc of the bought fusion protein; Avitag
T2 sequence (looked up): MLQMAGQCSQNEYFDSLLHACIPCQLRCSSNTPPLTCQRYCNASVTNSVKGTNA
Nature of the experiment: BLI, dissociation rate relative to the original molecule PR001046 VH.

Experiment [3] has as its target T2, biotinylated human BCMA-Fc, Avitag …. Kind of experiment: BLI (Octet Red96e), biotinylated BCMA-Fc on SA sensor, VH supernatant, 100 nM, single concentration.
Method: In this example, the binding kinetics between the anti-BCMA antibody and the BCMA antigenic protein were analyzed by the Biolayer Interferometry (BLI) technique using an Octet Red96e molecular interaction analyzer (ForteBio, Octet Red96e).
Experiment [4] concerns the target T3, human BCMA (human, UniProt Q02223 1-184).
T3 construct: whole, on cells; also called hBCMA; TNFRSF17
T3 sequence (looked up): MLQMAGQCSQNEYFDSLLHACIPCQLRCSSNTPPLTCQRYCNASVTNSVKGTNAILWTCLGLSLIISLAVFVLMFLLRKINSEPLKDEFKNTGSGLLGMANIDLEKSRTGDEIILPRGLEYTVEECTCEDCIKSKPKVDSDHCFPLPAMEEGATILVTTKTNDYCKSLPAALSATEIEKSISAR
Kind of experiment: FACS on NCI-H929 cells.

In the next experiment the target is T4, cynomolgus monkey BCMA (cynomolgus monkey, UniProt A0A2K5UD97 1-183).
T4 construct: whole, on cells; also called cyno BCMA
T4 sequence (A0A2K5UD97 entry or part of it): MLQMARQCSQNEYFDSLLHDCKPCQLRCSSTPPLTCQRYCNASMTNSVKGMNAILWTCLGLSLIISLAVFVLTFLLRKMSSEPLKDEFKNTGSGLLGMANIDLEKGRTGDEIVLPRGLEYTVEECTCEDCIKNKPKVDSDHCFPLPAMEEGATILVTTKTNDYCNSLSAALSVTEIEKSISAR
Nature of the experiment: FACS on HEK293T/cyno BCMA cells.

B1: PR004562, PR001046 VH-derived single-domain variant 1046-R2-10H5 (VHH)
VHH: EVQLVETGGGLIQPGGSLRLSCAASGFTVSDSYMTWVRQAPGKGLEWVSVIFSGGKTYYSDSVKGRFTISRDNAKNTLYLQMNSLRAEDTALYYCARRNYDQTLGTDVFDIWGQGTMVTVSS
notes: Tested as VH single domain with Flag and His tags; not shown: Flag and His tags
For B1, in the experiment with human BCMA [1], a half-maximal response (EC50) required 1.24 nM and the “Maximum MFI” value is 1560. In experiment [2], the Kdis fold was found to be 0.31. For the same molecule, in experiment [3], the Response is 0.535 and the koff (commonly the first-order rate constant of dissociation) stood at 0.000217 s⁻¹.

B2: PR004570, PR001046 VH-derived single-domain variant 1046-R2-6D6 (VHH)
VHH: EVQLVETGGGLIQPGGSLRLSCAASGFTVSDAYMTWVRQAPGKGLEWVSVIFSGGRTYYADSVKGRFTISRDNAKNTLYLQMNSLRAEDTALYYCARRNYDQTRGTDVFDIWGQGTMVTVSS
notes: as for B1
Regarding B2, in the experiment with human BCMA [1], the EC50 (as a rule, the concentration that produces a half-maximal response) amounted to 2.15 nM and the “Maximum MFI” value was determined as 1360. Also, the Kdis fold in experiment [2] came to 0.34. Moreover, in experiment [3], the Response was 0.437 and the koff is 0.000234 s⁻¹.

B3: PR004569, PR001046 VH-derived single-domain variant 1046-R2-5H2 (VHH)
VHH: EVQLVETGGGLIQPGGSLRLSCAASGFTVSDSYMTWVRQAPGKGLEWVSVIFSGGRTYYSDSVKGRFTISRDNAKNTLYLQMNSLRAEDTALYYCARRNYDQTRGTDVFDIWGQGTMVTVSS
notes: as for B1
In the case of B3, in the experiment with human BCMA [1], the EC50 was found to be 5.87 nM and the “Maximum MFI” value turned out to be 1420. Besides, in experiment [2], the Kdis fold stood at 0.36. Further, in experiment [3], the Response came out at 0.73 and the koff amounted to 0.000254 s⁻¹.

B4: PR004571, PR001046 VH-derived single-domain variant 1046-R2-6F1 (VHH)
VHH: EVQLVETGGGLIQPGGSLRLSCAASGFTVSDSYMTWVRQAPGKGLEWVSVIFSGGKTYYSDSVKGRFTISRDNAKNTLYLQMNSLRAEDTALYYCARRNYDQTIGTDVFDIWGQGTMVTVSS
notes: as for B1
B4: in the experiment with human BCMA [1], a half-maximal effect (EC50) was put at 2.86 nM and the “Maximum MFI” value was 1380. In experiment [2], the Kdis fold was 0.31. Also, in experiment [3], the Response came to 0.704 and the koff came to 0.000219 s⁻¹.

B5: PR004573, PR001046 VH-derived single-domain variant 1046-R2-8B1 (VHH)
VHH: EVQLVETGGGLIQPGGSLRLSCAASGFTVSDSYMTWVRQAPGKGLEWVSVIFSGGKTYYADSVKGRFTISRDNAKNTLYLQMNSLRAEDTALYYCARRNYDDTRGTDVFDIWGQGTMVTVSS
notes: as for B1
B5: in the experiment with human BCMA [1], the EC50 worked out at 1.72 nM and the “Maximum MFI” value was found to be 1230. Further, the Kdis fold in experiment [2] was determined as 0.41. In addition, in experiment [3], the Response came out at 0.268 and the koff came out at 0.000282 s⁻¹.

B6: PR004565, PR001046 VH-derived single-domain variant 1046-R2-2G4 (VHH)
VHH: EVQLVETGGGLIQPGGSLRLSCAASGFTVSDAYMTWVRQAPGKGLEWVSVIFSGGNTYVSDSVKGRFTISRDNAKNTLYLQMNSLRAEDTALYYCARRNYDQTIGTDVFDIWGQGTMVTVSS
notes: as for B1
Turning to B6, in the experiment with human BCMA [1], the EC50 was found to be 2.42 nM and the “Maximum MFI” value was found to be 1430. Further, the Kdis fold in experiment [2] was found to be 0.34. Also, in experiment [3], the Response came out at 0.557 and the koff was 0.000236 s⁻¹.

B7: PR004566, PR001046 VH-derived single-domain variant 1046-R2-4G10 (VHH)
VHH: EVQLVETGGGLIQPGGSLRLSCAASGFTVSDSYMTWVRQAPGKGLEWVSVIFSGGRTYYSDSVKGRFTISRDNAKNTLYLQMNSLRAEDTALYYCARRNYDDTRGTDVFDIWGQGTMVTVSS
notes: as for B1
Turning to B7, in the experiment with human BCMA [1], the EC50 is 3.17 nM and the “Maximum MFI” value worked out at 1400. Further, the Kdis fold in experiment [2] amounted to 0.41. For the same molecule, in experiment [3], the Response was determined as 0.424 and the koff amounted to 0.000286 s⁻¹.

B8: PR004568, PR001046 VH-derived single-domain variant 1046-R2-5H1 (VHH)
VHH: EVQLVETGGGLIQPGGSLRLSCAASGFTVSDAYMTWVRQAPGKGLEWVSVIFSGGRTYVADSVKGRFTISRDNAKNTLYLQMNSLRAEDTALYYCARRNYDDTRGTDVFDIWGQGTMVTVSS
notes: as for B1
For B8, in the experiment with human BCMA [1], the EC50 came to 2.85 nM and the “Maximum MFI” value turned out to be 1440. In addition, the Kdis fold in experiment [2] amounted to 0.33. In addition, in experiment [3], the Response came to 0.733 and the koff turned out to be 0.00023 s⁻¹.

B9: PR004564, PR001046 VH-derived single-domain variant 1046-R2-2D4 (VHH)
VHH: EVQLVETGGGLIQPGGSLRLSCAASGFTVSDSYMTWVRQAPGKGLEWVSVIFSGGRTYYSDSVKGRFTISRDNAKNTLYLQMNSLRAEDTALYYCARRNYDQTLGTDVFDIWGQGTMVTVSS
notes: as for B1
On to B9, for which, in the experiment with human BCMA [1], it took 1.34 nM to reach a half-maximal effect (EC50) and the “Maximum MFI” value came to 1530. In addition, the Kdis fold in experiment [2] amounted to 0.33. In addition, in experiment [3], the Response came out at 0.57 and the koff was found to be 0.000228 s⁻¹.

B10: PR004563, PR001046 VH-derived single-domain variant 1046-R2-1A1 (VHH)
VHH: EVQLVETGGGLIQPGGSLRLSCAASGFTVYDNYMTWVRQAPGKGLEWVSVIFSGGKTYVADSVKGRFTISRDNAKNTLYLQMNSLRAEDTALYYCARRNYDQTRGTDVFDIWGQGTMVTVSS
notes: as for B1
For the molecule B10, in the experiment with human BCMA [1], a half-maximal effect (EC50) was put at 7.96 nM and the “Maximum MFI” value is 1260. The Kdis fold in experiment [2] was 0.37. For the same molecule, in experiment [3], the Response was 0.493 and the koff is 0.000259 s⁻¹.

B11: PR004574, PR001046 VH-derived single-domain variant 1046-R2-9E5 (VHH)
VHH: EVQLVETGGGLIQPGGSLRLSCAASGFTVSDAYMTWVRQAPGKGLEWVSVIFSGGRTYYSDSVKGRFTISRDNAKNTLYLQMNSLRAEDTALYYCARRNYDQTRGTDVFDIWGQGTMVTVSS
notes: as for B1
For B11, in the experiment with human BCMA [1], the EC50 was determined as 2.9 nM and the “Maximum MFI” value came to 1300. For the same molecule, the Kdis fold in experiment [2] turned out to be 0.45. In experiment [3], the Response was found to be 0.29 and the dissociation rate constant (koff) was determined as 0.000314 s⁻¹.

B12: PR004567, PR001046 VH-derived single-domain variant 1046-R2-5E1 (VHH)
VHH: EVQLVETGGGLIQPGGSLRLSCAASGFTVSDSYMTWVRQAPGKGLEWVSVIFSGGKTYVADSVKGRFTISRDNAKNTLYLQMNSLRAEDTALYYCARRNYDQTRGTDVFDIWGQGTMVTVSS
notes: as for B1
In the case of B12, in the experiment with human BCMA [1], the EC50 was 1.72 nM and the “Maximum MFI” value came out at 1440. Also, the Kdis fold in experiment [2] turned out to be 0.29. Further, in experiment [3], the Response came to 0.578 and the koff stood at 0.000201 s⁻¹.

B13: PR004572, PR001046 VH-derived single-domain variant 1046-R2-7E7 (VHH)
VHH: EVQLVETGGGLIQPGGSLRLSCAASGFTVSDSYMTWVRQAPGKGLEWVSVIFSGGKTYVADSVKGRFTISRDNAKNTLYLQMNSLRAEDTALYYCARRNYDDTRGTDVFDIWGQGTMVTVSS
notes: Tested as VH single domain with Flag and His tags; also called PR001046-R2-7E7; not shown: Flag and His tags
Turning to B13, in the experiment with human BCMA [1], it took 0.54 nM to reach a half-maximal effect (EC50) and the “Maximum MFI” value amounted to 1500. The Kdis fold in experiment [2] turned out to be 0.34. Further, in experiment [3], the Response worked out at 0.29 and the koff was 0.000236 s⁻¹.

B14: PR002301 (bispecific antibody, human IgG1, lambda, L234A L235A)
light: QAVVTQEPSLTVSPGGTVTLTCRSSTGAVTTSNYANWVQQKPGQAPRGLIGGTNKRAPWTPARFSGSLLGDKAALTLLGAQPEDEAEYFCALWYSNLWVFGGGTKLTVLGQPKAAPSVTLFPPSSEELQANKATLVCLISDFYPGAVTVAWKADSSPVKAGVETTTPSKQSNNKYAASSYLSLTPEQWKSHRSYSCQVTHEGSTVEKTVAPTECS
heavy: EVQLLESGGGLVQPGGSLRLSCAASGFTFSTYAMNWVRQAPGKGLEWVSRIRSKYNNYATYYADSVKDRFTISRDDSKSTLYLQMNSLRAEDTAVYYCVRHGNFGNSYVSWFAYWGQGTLVTVSSASTKGPSVFPLAPSSKSTSGGTAALGCLVKDYFPEPVTVSWNSGALTSGVHTFPAVLQSSGLYSLSSVVTVPSSSLGTQTYICNVNHKPSNTKVDKKVEPKSCDKTHTCPPCPAPEAAGGPSVFLFPPKPKDTLMISRTPEVTCVVVDVSHEDPEVKFNWYVDGVEVHNAKTKPREEQYNSTYRVVSVLTVLHQDWLNGKEYKCKVSNKALGAPIEKTISKAKGQPREPQVYTLPPCREEMTKNQVSLWCLVKGFYPSDIAVEWESNGQPENNYKTTPPVLDSDGSFFLYSKLTVDKSRWQQGNVFSCSVMHEALHNHYTQKSLSLSPGK
chain: EVQLLESGGGLVQPGGSLRLSCAASGFTFSSYAMIWVRQAPGKGLEWVSGISESGGSTYYADSVKGRFTISRDNSKNTLYLQMNSLRAEDTAVYFCVKDLDDILTGYYKDYWGQGTLVTVSSRTGGGGSGGGGSGGGGSGGGGSGGGGSKLEVQLLESGGGLVQPGGSLRLSCAASGFTFSSYAMIWVRQAPGKGLEWVSGISESGGSTYYADSVKGRFTISRDNSKNTLYLQMNSLRAEDTAVYFCVKDLDDILTGYYKDYWGQGTLVTVSSASEPKSSDKTHTCPPCPAPEAAGGPSVFLFPPKPKDTLMISRTPEVTCVVVDVSHEDPEVKFNWYVDGVEVHNAKTKPREEQYNSTYRVVSVLTVLHQDWLNGKEYKCKVSNKALGAPIEKTISKAKGQPREPQVCTLPPSREEMTKNQVSLSCAVKGFYPSDIAVEWESNGQPENNYKTTPPVLDSDGSFFLVSKLTVDKSRWQQGNVFSCSVMHEALHNHYTQKSLSLSPGK
B14: the results for the “Maximum MFI” value with human BCMA [4] and with cynomolgus monkey BCMA were 53000 and 13000, respectively.

The values above are taken from US20230322953A1 (HARBOUR BIOMED SHANGHAI, published 2023).
